Source: patent US8129349B2, “Treatment of disease by inducing cell apoptosis” (The Regents of the University of California, priority 2000, dated 2012)

System: hepatic stellate cells
Assay: Apoptosis of activated stellate cells transfected with C/EBPβ constructs, annexin-V-PE binding
Assay type: cell-based, mouse
Details: apoptosis induced by dominant negative MEKK1, IκBα or RSK mutants or by lactacystin
Method in brief: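 Primary mouse hepatic stellate cells activated on collagen type I, co-transfected with MSV-C/EBPβ constructs (antisense, sense or Ala^217), CMV-GFP and p90RSK (1 μg each). Annexin-V-PE plasma-membrane binding read 4 h post-transfection, expressed as percentage of GFP-positive transfected cells that were annexin-V-PE positive.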

B1: C/EBPβ-Glu^217: modified murine C/EBPβ with mutation of Thr^217 to glutamic acid (SEQ ID NO:4), phosphorylation mimic (protein, listed as Mus musculus)
chain: MHRLLAWDAACLPPPPAAFRPMEVANFYYEPDCLAYGAKAARAAPRAPAAEPAIGEHERAIDFSPYLEPLAPAADFAAPAPAHHDFLSDLFADDYGAKPSKKPADYGYVSLGRAGAKAAPPACFPPPPPAALKAEPGFEPADCKRADDAPAMAAGFPFALRAYLGYQATPSGSSGSLSTSSSSSPPGTPSPADAKAAPAACFAGPPAAPAKAKAKKZVDKLSDEYKMRRERNNIAVRKSRDKAKMRNLETQHKVLELTAENERLQKKVEQLSRELSTLRNLFKQLPEPLLASAGHC
  Rescue from induced apoptosis by expressed construct: partially inhibited
